One molecule from patent publication US20240391984A1 can be followed below.

The target in experiment [1] is polyclonal IgG (Gammanorm, Octapharma, Sweden). As to the kind of experiment: SPR (Biacore 8K+), 1:1 kinetic fit; summary table, differs from Table 10. For orientation: Surface plasmon resonance follows binding to a sensor surface in real time, without labels.
Experiment [2] shares this target. As to the kind of experiment: SPR (Biacore 8K+), variant amine-coupled to CM5, Gammanorm as analyte, steady state fit.
For experiment [3] the target is unchanged. The experiment is described as follows: SPR (Biacore 8K+), variant amine-coupled to CM5, Gammanorm as analyte, 1:1 kinetic fit.
Experiment [4] shares this target. As to the kind of experiment: SPR (Biacore 8K+), steady state fit; summary table, differs from Table 10.

B1: pAM245 (Protein L C3 domain; H, H, Q at positions 10, 45, 60) (designed binder)
chain: PKEEVTIKVHLIFADGKIQTAEFKGTFEEATAKAYAYANLLAKEHGEYTADLEDGGNTIQIKFAGKETPETPEE
As for B1, the Kd (in general, a measure of binding affinity in units of concentration) in experiment [1] is 54 nM; in experiment [2], 134 nM; in experiment [3] it was 65 nM; in experiment [4] it was 118 nM.
